Consider 19 molecules from patent US20240116985A1 (published 2024).

What is called EC50 is the midpoint of the concentration-response curve.

T1: full-length beta-Catenin (Uniprot ID P35222) (Homo sapiens (Human), UniProt P35222 2-781)
T1 construct: Used full-length in both the FP and the AlphaScreen assay; also called B-Catenin; bCat
T1 sequence: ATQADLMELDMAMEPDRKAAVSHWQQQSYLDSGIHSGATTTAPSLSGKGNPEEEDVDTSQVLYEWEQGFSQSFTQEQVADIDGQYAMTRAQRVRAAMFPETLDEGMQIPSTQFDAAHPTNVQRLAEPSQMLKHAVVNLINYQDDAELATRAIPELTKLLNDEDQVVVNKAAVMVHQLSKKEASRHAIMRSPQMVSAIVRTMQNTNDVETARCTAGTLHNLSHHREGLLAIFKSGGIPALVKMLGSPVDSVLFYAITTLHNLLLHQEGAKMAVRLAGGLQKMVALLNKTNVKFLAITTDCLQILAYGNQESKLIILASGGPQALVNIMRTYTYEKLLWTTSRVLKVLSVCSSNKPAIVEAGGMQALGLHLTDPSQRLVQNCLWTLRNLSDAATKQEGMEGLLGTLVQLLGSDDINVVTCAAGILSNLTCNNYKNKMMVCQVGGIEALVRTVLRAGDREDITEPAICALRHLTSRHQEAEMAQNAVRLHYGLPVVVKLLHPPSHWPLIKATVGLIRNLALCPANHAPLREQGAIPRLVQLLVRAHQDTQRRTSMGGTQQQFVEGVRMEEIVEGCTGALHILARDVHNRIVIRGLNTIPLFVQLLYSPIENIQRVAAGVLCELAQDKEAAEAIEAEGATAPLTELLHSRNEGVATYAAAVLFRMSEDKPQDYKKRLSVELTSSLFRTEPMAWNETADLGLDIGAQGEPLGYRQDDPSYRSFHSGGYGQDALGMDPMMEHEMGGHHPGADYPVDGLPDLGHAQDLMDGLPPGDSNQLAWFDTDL

B1: I-61 (peptide)
peptide: Ac-FDA[R8]DDAAFV[PyrS][Cha]WQ-NH2
modifications: staple 4-11
notes: Stapled peptide; also called Ac-Phe-Asp-Ala-R8-Asp-Asp-Ala-Ala-Phe-Val-PyrS-Cha-Trp-Gln-NH2
B2: I-48 (peptide)
peptide: FDXADDAAFXAFWQ
modifications: not fully specified; N-terminal Ac; C-terminal NH2; R8 at 3 and S5 at 10, stapled
notes: Stapled peptide; also called Ac-Phe-Asp-R8-Ala-Asp-Asp-Ala-Ala-Phe-S5-Ala-Phe-Trp-Gln-NH2
B3: I-47 (peptide)
peptide: Ac-FD[R8]ADDAAF[S5]AFWQ-NH2
modifications: staple 3-10; also: staple isomer composition: earlier-eluting HPLC peak
notes: as for B2
B4: I-69 (peptide)
peptide: Ac-ADI[RdN″]D[Nle]AAFQ[S7]FWH-NH2
modifications: staple 4-11
notes: Stapled peptide; also called Ac-Ala-Asp-Ile-RdN-Asp-nLeu-Ala-Ala-Phe-Gln-S7-Phe-Trp-His-NH2
B5: I-50 (peptide)
peptide: Ac-FD[RdN(3)]ADDAAF[S7]AFWQ-NH2
modifications: staple 3-10; also: later-eluting HPLC isomer, E/Z not assigned
notes: Stapled peptide; also called Ac-Phe-Asp-RdN-Ala-Asp-Asp-Ala-Ala-Phe-S7-Ala-Phe-Trp-Gln-NH2
B6: I-70 (peptide)
peptide: Ac-ADI[RdN″]D[hLeu]AAFQ[S7]FWH-NH2
modifications: staple 4-11
notes: Stapled peptide; also called Ac-Ala-Asp-Ile-RdN-Asp-hLeu-Ala-Ala-Phe-Gln-S7-Phe-Trp-His-NH2
B7: I-49 (peptide)
peptide: Ac-FD[RdN(3)]ADDAAF[S7]AFWQ-NH2
modifications: staple 3-10; also: earlier-eluting HPLC isomer, E/Z not assigned
notes: as for B5
B8: I-46 (peptide)
peptide: FDAXDDAAFVXFWQ
modifications: not fully specified; N-terminal Ac; C-terminal NH2; RgN at 4 and S7 at 11, stapled
notes: Stapled peptide; also called Ac-Phe-Asp-Ala-RgN-Asp-Asp-Ala-Ala-Phe-Val-S7-Phe-Trp-Gln-NH2
B9: I-56 (peptide)
peptide: Ac-FDA[R8]D[d(αMeF)]AAFV[PyrS″]FWQ-NH2
modifications: staple 4-11
notes: Stapled peptide; also called Ac-Phe-Asp-Ala-R8-Asp-aMeDF-Ala-Ala-Phe-Val-PyrS-Phe-Trp-Gln-NH2
B10: I-62 (peptide)
peptide: Ac-FDA[R8]DDAAFV[PyrS″]YWQ-NH2
modifications: staple 4-11; not fully specified; printed as Ac-Phe-Asp-Ala-R8-Asp-Asp-Ala-Ala-Phe-Val-PyrS-Tyr-Trp-Gln-NH2
notes: Stapled peptide; also called Ac-Phe-Asp-Ala-R8-Asp-Asp-Ala-Ala-Phe-Val-PyrS-Tyr-Trp-Gln-NH2
B11: I-58 (peptide)
peptide: Ac-FDA[R8]DQAAFV[PyrS]FWQ-NH2
modifications: staple 4-11; not fully specified; printed as Ac-Phe-Asp-Ala-R8-Asp-Gln-Ala-Ala-Phe-Val-PyrS-Phe-Trp-Gln-NH2
notes: Stapled peptide; also called Ac-Phe-Asp-Ala-R8-Asp-Gln-Ala-Ala-Phe-Val-PyrS-Phe-Trp-Gln-NH2
B12: I-59 (peptide)
peptide: Ac-FDA[R8]DQAAFV[PyrS″]FWQ-NH2
modifications: staple 4-11; not fully specified; printed as Ac-Phe-Asp-Ala-R8-Asp-Gln-Ala-Ala-Phe-Val-PyrS-Phe-Trp-Gln-NH2
notes: as for B11
B13: I-57 (peptide)
peptide: Ac-FDA[R8]D[d(αMeF)]AAFV[PyrS″]FWQ-NH2
modifications: staple 4-11; not fully specified
notes: as for B9
B14: I-63 (peptide)
peptide: Ac-FDA[R8]DDAAFV[PyrS]YWQ-NH2
modifications: staple 4-11; not fully specified; printed as Ac-Phe-Asp-Ala-R8-Asp-Asp-Ala-Ala-Phe-Val-PyrS-Tyr-Trp-Gln-NH2
notes: as for B10
B15: I-51 (peptide)
peptide: Ac-FD[R8]ADDAAF[PyrS(3)]AFWQ-NH2
modifications: staple 3-10
notes: Stapled peptide; also called Ac-Phe-Asp-R8-Ala-Asp-Asp-Ala-Ala-Phe-PyrS-Ala-Phe-Trp-Gln-NH2
B16: I-71 (peptide)
peptide: Ac-ADI[RdN″]D[hLeu]AAFQ[S7]FWH-NH2
modifications: staple 4-11
notes: as for B6
B17: I-68 (peptide)
peptide: Ac-ADI[RdN″]D[Nle]AAFQ[S7]FWH-NH2
modifications: staple 4-11
notes: as for B4
B18: I-60 (peptide)
peptide: Ac-FDA[R8]DDAAFV[PyrS][Cha]WQ-NH2
modifications: staple 4-11
notes: as for B1
B19: I-73 (peptide)
peptide: Ac-ADI[RdN(3)]D[Cha]AAFQ[S7]FWH-NH2
modifications: staple 4-11; not fully specified; printed as Ac-Ala-Asp-Ile-RdN-Asp-Cha-Ala-Ala-Phe-Gln-S7-Phe-Trp-His-NH2
notes: Stapled peptide; also called Ac-Ala-Asp-Ile-RdN-Asp-Cha-Ala-Ala-Phe-Gln-S7-Phe-Trp-His-NH2

Starred links: 1 amine or outer side, 2 acyl side, 3 side chain; linkers in the order of their positions; H or OH if unused. Positions of bridges follow the written chain, without caps; N, C: chain ends. Non-standard residues stand in square brackets, D forms with d. Primed or numbered codes have the meaning given here. RdN(3) = (R)-4-(((allyloxy)carbonyl)(methyl)amino)-2-amino-2-methylbutanoic acid, stapling residue, C=CCOC(=O)N(C)CC[C@@](C)(N[*:1])C(=O)[*:2]; RdN″ = (R)-4-(((allyloxy)carbonyl)(methyl)amino)-2-amino-2-methylbutanoic acid (stapling residue), C=CCOC(=O)N(C)CC[C@@](C)(N[*:1])C(=O)[*:2]; PyrS(3) = (S)-1-((allyloxy)carbonyl)-3-aminopyrrolidine-3-carboxylic acid, stapling residue, C=CCOC(=O)N1CC[C@@](N[*:1])(C(=O)[*:2])C1; PyrS″ = (S)-1-((allyloxy)carbonyl)-3-aminopyrrolidine-3-carboxylic acid (stapling residue), C=CCOC(=O)N1CC[C@@](N[*:1])(C(=O)[*:2])C1; PyrS = (S)-1-((allyloxy)carbonyl)-3-aminopyrrolidine-3-carboxylic acid, C=CCOC(=O)N1CC[C@@](N[*:1])(C(=O)[*:2])C1; S7 = C[C@@](CCCCCC=[*:3])(N[*:1])C(=O)[*:2]; d(αMeF) = C[C@@](N)(Cc1ccccc1)C(=O)O; R8 = C=CCCCCCC[C@@](C)(N)C(=O)O; Cha = N[C@@H](CC1CCCCC1)C(=O)O; hLeu = CC(C)CC[C@H](N)C(=O)O; S5 = C=CCCC[C@](C)(N)C(=O)O; Nle = CCCC[C@H](N)C(=O)O

This assay has as its target T1, full-length beta-Catenin (Uniprot ID …). Kind of assay: AlphaScreen competition; full-length beta-catenin, biotin-TCF4(10-53) probe. The protocol: Equal volume of the titrated peptide was added to the plate and incubated for 15 minutes at 20° C. Then 4 uL of donor and 4 uL acceptor beads at 10 ug/mL were added to the plate, for a 16 uL reaction pool and protected from light for 60 minutes at 20° C. prior to read. Reads were performed on a CLARIOstar plate reader (BMG Labtech) in duplicate, and data were fitted to a 1:1 binding model with hill slope using an in-house script. All provided concentrations are final concentrations.
Consider B1, for which it took 8.9 µM to reach a half-maximal effect (EC50). As for B2, the EC50 was ≥ 10 µM. For B3 the value was ≥ 10 µM.

Molecule B4 had an EC50 of 9.1 µM. For B5 the value was ≥ 10 µM; for B6, ≥ 10 µM; for B7, ≥ 10 µM.

For the molecule B8, the EC50 is ≥ 10 µM. As for B9, the EC50 was ≥ 10 µM. Turning to B10, the EC50 is ≥ 10 µM. The figure for B11 is ≥ 10 µM; for B12 it is 9.88 µM. With B13, the concentration giving a half-maximal response (EC50) was ≥ 10 µM. For B14 the value was ≥ 10 µM; for B15, ≥ 10 µM; for B16, ≥ 10 µM.

Regarding B17, the response was half-maximal at 8.12 µM (EC50).

Take B18: the EC50 was ≥ 10 µM. Take B19: the EC50 is ≥ 10 µM.
